Experimental data published in patent US8420776B2, “Ube2G2 binding domain in the ubiquitin ligase gp78 and methods of use thereof” (The United States of America, as Represented by the …, priority 2004, dated 2013).

T1: Myc-Ube2G2 (Mus musculus, UniProt P60605)
T1 construct: expressed in transfected cells; host or cells: HEK 293T
T1 sequence (P60605 1-165): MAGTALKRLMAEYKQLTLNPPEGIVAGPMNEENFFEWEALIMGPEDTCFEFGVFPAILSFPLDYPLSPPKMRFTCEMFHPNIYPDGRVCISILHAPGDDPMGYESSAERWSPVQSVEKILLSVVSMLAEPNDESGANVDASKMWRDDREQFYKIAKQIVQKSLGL


What was measured:
Format in all cases: cell-based
ERAD substrate CD3-δ [1] = assay: CD3-δ level in co-transfected cells by immunoblotting; details: co-transfection with CD3-δ; immunoblot
Protocol: (§1) Transfections of HT1080, NIH 3T3 and HEK 293T cells were carried out ˜24 hr after plating using Polyfect (Qiagen, Valencia, Calif.) and cells harvested after ˜48 hr. J558 cells were transfected by electroporation using Bio-rad GENE pulser II at settings of 250 v, 950uF. Vector without insert was used to equalize total plasmid. In most experiments 0.15 μg of pEGFP-C1 served as an internal control. For experiments not involving immunoprecipitation, 6×10^5 cells were plated in 6 well plates and cell lysis was with Mammalian Protein Extraction Reagent (Pierce). For immunoprecipitation, 2.4×10^6 cells were seeded in 100 mm dishes and cells were lysed in RIPA buffer (1×PBS, 1% Nonidet P40. 0.5% sodium deoxycholate, 0.1% SDS). Lysis buffers were supplemented with Protease Inhibitor Cocktail (Sigma) and 10 mM iodoacetamide. Supernatants were analyzed after a 10,000×g centrifugation using standard techniques for immunoprecipitation, SDS-PAGE, immunoblotting and ECL. Treatment of cells with MG132 (Sigma) was at 50 μM for eight hr. Cycloheximnide was used at 50 μg/ml. All cells were collected at the end of the six hr chase.
FIG. 7 depicts the stabilization of CD3-δ protein in cells transfected with the G2BD, but not with the G2BD with amino acids 579-584 (of SEQ ID NO:2) mutated. HEK 293T cells were transfected with the ERAD substrate CD3-δ along with the indicated GFP fusions of gp78. The left and right sides are two separate experiments.
To test this, GFP fusions of either a minimal E2 binding domain (GFP-574-611) or a more extended region that includes the C-terminus of gp78 (GFP-574-643) were evaluated (FIG. 21A). […] To assess this further, the C-terminal region of gp78 was fused to the eight amino acid Flag tag. […] Mdm2 is a RING finger E3 for both itself and p53 that is neither an ERAD substrate nor known to utilize Ube2G2 as an E2. […] To establish with certainty that the effect observed with expression of the Ube2G2 binding site is a consequence of binding endogenous E2, and not due to other unanticipated effects, cells were co-transfected with increasing amounts of Ube2G2 (FIG. 21C, lanes 3 and 4). […] These findings clearly establish that the isolated E2 binding site has the potential to markedly alter ERAD of CD3-δ. To ensure the effect observed was not peculiar to one substrate, TCR-α was evaluated (FIG. 21D).

ERAD substrate CD3-δ [2] = assay: Cycloheximide chase of CD3-δ in co-transfected cells; details: co-transfection with HA-CD3-δ
Protocol: as §1
(§2) To evaluate protein turnover in more detail, cycloheximide chase experiments were performed (FIGS. 20C and 20D). […] In agreement with FIG. 20A, CD3-δ degradation was accelerated with wild type gp78 (FIGS. 20C and 20D middle panels; effects of full-length forms of gp78 on CD3-δ from FIGS. 20C and 20D are quantified in FIG. 20E).

gp78 [3] = assay: gp78 ubiquitylation in transfected cells (IP anti-gp78, IB anti-ubiquitin); details: 50 μM MG132 eight hours
Protocol: FIGS. 20A-20E depict the requirement of multiple domains of gp78 to target itself and a heterologous ERAD substrate. (FIG. 20A) Cells were co-transfected with the indicated forms of full length gp78 together with CD3-δ and lysates analyzed by IB. (B) Cells were transfected with wild type and mutant gp78 plasmids as indicated. Samples were treated with 50 μM MG132 for eight hours, lysates IP'ed with anti-gp78 followed by […] with either antiubiquitin (upper) or anti-gp78 (lower). Arrow in upper panel indicates migration of unmodified gp78. (FIGS. 20C and 20D) Cells were co-transfected with HA-CD3-δ and wild type (WT) or mutant forms of gp78. Cells were treated with cycloheximide (CHX) as indicated. (FIG. 20E) Graphic representation of CD3-δ levels from FIGS. 20C and 20D (fall length gp78 transfections only), Cue-m1, 2 is the average of data shown in FIGS. 20C and 20D.
as §1, with “Lysis buffers were supplemented with Protease Inhibitor Cocktail (Sigma) and 10 mM iodoacetamide.” left out, “Treatment of cells with MG132 (Sigma) was at 50 μM for eight hr. Cycloheximnide was used at 50 μg/ml. All cells were collected at the end of the six hr chase.” left out
gp78 is degraded in a proteasome-dependent manner, and deletion of the entire cytoplasmic domain results in its stabilization. […] To determine the significance of the RING finger, Cue domain and Ube2G2 binding site on gp78 stability, mutations of each were evaluated within full-length gp78. […]

Myc-Ube2G2 = target: T1, Myc-Ube2G2; assay: Co-immunoprecipitation with co-expressed Myc-Ube2G2 in cells; details: anti-Myc IP, anti-gp78 IB; MG132 8 hr
Protocol: as §1
FIG. 5 depicts the results of immunoprecipitation of Ube2G2 (MmUbc7) from HEK 293T cells co-transfected with a plasmid encoding myc-tagged MmUbc7/Ube2G2 together with s plasmid encoding various forms of gp78. HEK 293T cells were transfected with a plasmid encoding myc-tagged MmUbc7/Ube2G2 together with plasmids encoding various forms of gp78. After 48 hours, cells were harvested and co-immuntoprecipitated with an anti-Myc tage. Anti-gp78 was used for detection. “R2M” indicates a mutation of two crucial residues in the RING finger. “T” indicates C terminal truncations at the indicated amino acids. ΔB is the mutation indicated above in FIG. 4 in the context of the full length gp78 and “Cue12M” indicates mutations in the Cue domain of gp78.
To confirm the significance of the Ube2G2 binding site in cells, a variety of mutations and truncations of full-length gp78 were tested for binding of co-expressed Myc-Ube2G2 (FIG. 19A). Cells were treated with the proteasome inhibitor MG132 in an attempt to equalize levels of the various forms of gp78.

gp78 [4] = assay: Cycloheximide chase of gp78 in transfected cells; details: compared to wild type gp78
Protocol: as §1, §2

| Molecule | effect on CD3-δ level (stabilization) (ERAD substrate CD3-δ [1]) | effect on CD3-δ degradation (ERAD substrate CD3-δ [2]) | gp78 ubiquitylation (ubiquitin immunoreactivity) (gp78 [3]) | E2 association of full-length gp78 forms with co-expressed Myc-Ube2G2 (Myc-Ube2G2) | gp78 stability (gp78 [4]) |
| --- | --- | --- | --- | --- | --- |
| wild type gp78: full-length wild type human gp78 ubiquitin ligase expressed in cells (protein, listed as Homo sapiens) MPLLFLERFPWPSLRTYTGLSGLALLGTIISAYRALSQPEAGPGEPDQLTASLQPEPPAPARPSAGGPRARDVAQYLLSDSLFVWVLVNTACCVLMLVAKLIQCIVFGPLRVSERQHLKDKFWNFIFYKFIFIFGVLNVQTVEEVVMWCLWFAGLVFLHLMVQLCKDRFEYLSFSPTTPMSSHGRVLSLLVAMLLSCCGLAAVCSITGYTHGMHTLAFMAAESLLVTVRTAHVILRYVIHLWDLNHEGTWEGKGTYVYYTDFVMELTLLSLDLMHHIHMLLFGNIWLSMASLVIFMQLRYLFHEVQRRIRRHKNYLRVVGNMEARFAVATPEELAVNNDDCAICWDSMQAARKLPCGHLFHNSCLRSWLEQDTSCPTCRMSLNIADNNRVREEHQGENLDENLVPVAAAEGRPRLNQHNHFFHFDGSRIASWLPSFSVEVMHTTNILGITQASNSQLNAMAHQIQEMFPQVPYHLVLQDLQLTRSVEITTDNILEGRIQVPFPTQRSDSIRPALNSPVERPSSDQEEGETSAQTERVPLDLSPRLEETLDFGEVEVEPSEVEDFEARGSRFSKSADERQRMLVQRKDELLQQARKRFLNKSSEDDAASESFLPLEGASSDPVTLRRRMLAAAAERRLQKQQTS | decreased CD3-δ levels | accelerated | ubiquitylation was observed |  |  |
| gp78595: gp78 truncated after amino acid 595 of SEQ ID NO:2 (protein, listed as Homo sapiens) MPLLFLERFPWPSLRTYTGLSGLALLGTIISAYRALSQPEAGPGEPDQLTASLQPEPPAPARPSAGGPRARDVAQYLLSDSLFVWVLVNTACCVLMLVAKLIQCIVFGPLRVSERQHLKDKFWNFIFYKFIFIFGVLNVQTVEEVVMWCLWFAGLVFLHLMVQLCKDRFEYLSFSPTTPMSSHGRVLSLLVAMLLSCCGLAAVCSITGYTHGMHTLAFMAAESLLVTVRTAHVILRYVIHLWDLNHEGTWEGKGTYVYYTDFVMELTLLSLDLMHHIHMLLFGNIWLSMASLVIFMQLRYLFHEVQRRIRRHKNYLRVVGNMEARFAVATPEELAVNNDDCAICWDSMQAARKLPCGHLFHNSCLRSWLEQDTSCPTCRMSLNIADNNRVREEHQGENLDENLVPVAAAEGRPRLNQHNHFFHFDGSRIASWLPSFSVEVMHTTNILGITQASNSQLNAMAHQIQEMFPQVPYHLVLQDLQLTRSVEITTDNILEGRIQVPFPTQRSDSIRPALNSPVERPSSDQEEGETSAQTERVPLDLSPRLEETLDFGEVEVEPSEVEDFEARGSRFSKSADERQRMLVQRKDELLQQARK |  | minimal stabilization of CD3-δ |  | loss of E2 binding | stabilized gp78 |
| gp78611: gp78 truncated after residue 611 of SEQ ID NO:2 (protein, listed as Homo sapiens) MPLLFLERFPWPSLRTYTGLSGLALLGTIISAYRALSQPEAGPGEPDQLTASLQPEPPAPARPSAGGPRARDVAQYLLSDSLFVWVLVNTACCVLMLVAKLIQCIVFGPLRVSERQHLKDKFWNFIFYKFIFIFGVLNVQTVEEVVMWCLWFAGLVFLHLMVQLCKDRFEYLSFSPTTPMSSHGRVLSLLVAMLLSCCGLAAVCSITGYTHGMHTLAFMAAESLLVTVRTAHVILRYVIHLWDLNHEGTWEGKGTYVYYTDFVMELTLLSLDLMHHIHMLLFGNIWLSMASLVIFMQLRYLFHEVQRRIRRHKNYLRVVGNMEARFAVATPEELAVNNDDCAICWDSMQAARKLPCGHLFHNSCLRSWLEQDTSCPTCRMSLNIADNNRVREEHQGENLDENLVPVAAAEGRPRLNQHNHFFHFDGSRIASWLPSFSVEVMHTTNILGITQASNSQLNAMAHQIQEMFPQVPYHLVLQDLQLTRSVEITTDNILEGRIQVPFPTQRSDSIRPALNSPVERPSSDQEEGETSAQTERVPLDLSPRLEETLDFGEVEVEPSEVEDFEARGSRFSKSADERQRMLVQRKDELLQQARKRFLNKSSEDDAASESF |  | enhanced loss of CD3-δ |  | retained E2 binding | did not stabilize gp78 |
